Laboratory results published in PMC12548092, “Exploring Helical Fraying Linked to Dynamics and Catalysis in Adenylate Kinase” (Biochemistry, 2025).

Substrate: Nc1ncnc2c1ncn2[C@@H]1O[C@H](COP(=O)(O)OP(=O)(O)OP(=O)(O)O)[C@@H](O)[C@H]1O
Assay: purified protein
Conditions: varied substrate not named in table (text: substrates ATP and AMP)

B1: AKeco (Escherichia coli K-12; K47A) (protein)
chain: MRIILLGAPGAGKGTQAQFIMEKYGIPQISTGDMLRAAVKSGSELGAQAKDIMDAGKLVTDELVIALVKERIAQEDCRNGFLLDGFPRTIPQADAMKEAGINVDYVLEFDVPDELIVDRIVGRRVHAPSGRVYHVKFNPPKVEGKDDVTGEELTTRKDDQEETVRKRLVEYHQMTAPLIGYYSKEAEAGNTKYAKVDGTKPVAEVRADLEKILG
Km: 116 ± 8 µM | kcat: 464 s⁻¹ | kcat/Km: 4e+06 M⁻¹ s⁻¹
